Assay results from PMC8249388.

How the values were obtained:
GST-Bicc1-KH [1] = target: T1, GST-Bicc1-KH (UniProt Q99MQ1); assay: competition EMSA; details: 200 nM protein, 10 mM Tris-HCl pH 8, 100 mM KCl, 2.5 mM MgCl2, 2.5% glycerol, 1 mM DTT, 1 ug yeast tRNA in 20 uL, on ice 30 min, 1 pmol tagged RNA + 2.5 pmol DNA probe, 5% …
T1 sequence (Q99MQ1 whole entry, looked up): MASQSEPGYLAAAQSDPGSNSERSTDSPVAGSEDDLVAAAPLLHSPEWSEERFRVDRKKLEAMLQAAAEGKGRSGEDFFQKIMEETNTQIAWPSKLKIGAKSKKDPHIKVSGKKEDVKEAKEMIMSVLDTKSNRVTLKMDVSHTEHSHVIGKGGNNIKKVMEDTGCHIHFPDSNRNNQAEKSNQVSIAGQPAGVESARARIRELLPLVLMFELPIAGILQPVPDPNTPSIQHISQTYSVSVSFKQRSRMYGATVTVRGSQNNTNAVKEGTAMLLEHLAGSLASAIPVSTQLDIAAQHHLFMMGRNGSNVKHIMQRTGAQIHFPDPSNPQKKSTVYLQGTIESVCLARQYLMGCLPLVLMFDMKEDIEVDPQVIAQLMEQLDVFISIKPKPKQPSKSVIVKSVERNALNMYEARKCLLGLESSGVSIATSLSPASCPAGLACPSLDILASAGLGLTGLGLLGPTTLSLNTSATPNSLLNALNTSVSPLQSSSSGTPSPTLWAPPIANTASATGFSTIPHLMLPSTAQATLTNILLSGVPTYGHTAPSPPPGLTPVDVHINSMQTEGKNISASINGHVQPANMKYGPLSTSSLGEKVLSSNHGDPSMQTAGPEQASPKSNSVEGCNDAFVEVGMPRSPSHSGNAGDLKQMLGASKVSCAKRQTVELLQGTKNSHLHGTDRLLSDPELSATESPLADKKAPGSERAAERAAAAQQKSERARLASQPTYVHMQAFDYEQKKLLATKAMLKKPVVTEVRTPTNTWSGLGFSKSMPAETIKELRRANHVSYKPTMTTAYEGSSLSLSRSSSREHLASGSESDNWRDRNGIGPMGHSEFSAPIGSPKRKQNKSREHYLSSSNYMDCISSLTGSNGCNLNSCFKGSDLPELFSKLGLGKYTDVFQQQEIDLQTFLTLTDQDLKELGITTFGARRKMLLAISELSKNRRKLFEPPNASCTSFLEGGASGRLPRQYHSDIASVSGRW

GST-Bicc1-KH [2] = target: T1, GST-Bicc1-KH; assay: EMSA; details: RNP1; apparent Kd; yeast tRNA present; 10 mM Tris-HCl pH 8, 100 mM KCl, 2.5 mM MgCl2, 2.5% glycerol, 1 mM DTT, 1 ug yeast tRNA in 20 uL, on ice 30 min; 1 pmol tagged RNA + 2.5 pmol DNA probe; 5% …

“GAAAGACGUAAGCUGAAUGAUGUGCAUCGGGUCAAGAGAGCAGAA [66-110 Mut2 (UGAC to UAAG)]” was tested, and the IC50 (GST-Bicc1-KH [1]; vs labelled 66-110) was 654 nM.
“GAAAAAGGUGACCUGAAUGAUGUGCAUCGGGUCAAGAGAGCAGAA [66-110 Mut1 (GACG to AAGG)]” was tested, and the IC50 (GST-Bicc1-KH [1]; vs labelled 66-110) was > 1000 nM.
“UGAAGACGUGACUUCUAUUCGUAUGUGAUAUGUGGAGGUUAAAAA [226-270 8-mer (GCCCUGGG to GACGUGAC)]” was tested, and the IC50 (GST-Bicc1-KH [1]; vs labelled 66-110) was 392 nM.
Work on “GCUGAGCAUCCUAGAGGAAUGCGCAGGACAUGAAUGAACCUUGGCAAGAAGCAGGAGACGCAAUAGAAAGACGUGACCUGAAUGAUGUGCAUCGGGUCAAGAGAGCAGAAUUGGACAGGGCCAGAAUACUAGACAUGGUCCCCCAGUCAUGGGUUUAGACCACUAAUAGUCGUAGAAUGUGGGGCUAGGGUAUAACUCAGUGGGAGAGGGCUUGCCUAGCAUGCAUGUCUGGGCAACAGGCUCAGG / CTGAGCCTGTTGCCCAGAC [Dand5 3'-UTR 1-225 probe]” yielded a Kd (GST-Bicc1-KH [2]) of 233 nM.
In the case of “GAAAGACGUGACCUGAAUGAUGUGCAUCGGGUCAAGAGAGCAGAA [Dand5 3'-UTR 66-110 competitor]”, the IC50 (GST-Bicc1-KH [1]; vs labelled 66-110) is reported as 203 nM.
Work on “UGAACCUUGGCAAGAAGCAGGAGACGCAAUAGAAAGACGUGACCUGAAUGAUGUGCAUCGGGUCAAGAGAGCAGAAUUGGACAGGGCCAGAAUACUAGACAUGGUCCCCCAGUCAUGGGUUUAUGUCUGGGCAACAGGCUCAGG / CTGAGCCTGTTGCCCAGAC [Dand5 3'-UTR 35-157 probe]” yielded a Kd (GST-Bicc1-KH [2]) of 120 nM.
In the case of “UGAAGCCCUGGGUUCUAUUCGUAUGUGAUAUGUGGAGGUUAAAAAAAGGUGAAAAUUAGCUAUAGUGUAUGAUUAGCCCUGUGUGAGAGGGAACAUUCAUGCCACAAUCACUAACUCACGUCCUCCUCAGGAAUCCUCAGCAGUCCCGCAAGGUAGAAUUUCACCAUGGGUCAUUUUACAGAUGAGGAAACCGAAGCUAU [Dand5 3'-UTR 226-425 (distal) competitor]”, the IC50 (GST-Bicc1-KH [1]; vs labelled 1-225) is reported as > 1000 nM.
In the case of “GCUGAGCAUCCUAGAGGAAUGCGCAGGACAUGAAUGAACCUUGGCAAGAAGCAGGAGACGCAAUAGAAAGACGUGACCUGAAUGAUGUGCAUCGGGUCAAGAGAGCAGAAUUGGACAGGGCCAGAAUACUAGACAUGGUCCCCCAGUCAUGGGUUUAGACCACUAAUAGUCGUAGAAUGUGGGGCUAGGGUAUAACUCAGUGGGAGAGGGCUUGCCUAGCAUGCA [Dand5 3'-UTR 1-225 competitor]”, the IC50 (GST-Bicc1-KH [1]; vs labelled 1-225) is reported as 283 nM.
With “GAAAGACGUGACCUGAAUGAUGUGCAUCGGGUCAAGAGAGCAGAAUGUCUGGGCAACAGGCUCAGG / CTGAGCCTGTTGCCCAGAC [Dand5 3'-UTR 66-110 probe]” the Kd (GST-Bicc1-KH [2]) was 120 nM.
In the case of “GAAAGACGUGACCUGAAUGAUGUGCAUCGGGUCACGUCUUUCGAA [66-110 Stem+ (GACG masked in elongated stem)]”, the IC50 (GST-Bicc1-KH [1]; vs labelled 66-110) is reported as > 1000 nM.
Work on “UGAACCUUGGCAAGAAGCAGGAGACGCAAUAGAAAGACGUGACCUGAAUGAUGUGCAUCGGGUCAAGAGAGCAGAAUUGGACAGGGCCAGAAUACUAGACAUGGUCCCCCAGUCAUGGGUUUA [Dand5 3'-UTR 35-157 competitor]” yielded an IC50 (GST-Bicc1-KH [1]; vs labelled 35-157) of 191 nM.
